Results as given in US20230272086A1 (CHIA TAI TIANQING PHARMACEUTICAL GROUP, published 2023).

T1: IL1R8/IL1RAPL1 (Sino biological, 10177-H08H) (UniProt Q9NZN1 19-357)
T1 construct: Bought protein
T1 sequence (looked up): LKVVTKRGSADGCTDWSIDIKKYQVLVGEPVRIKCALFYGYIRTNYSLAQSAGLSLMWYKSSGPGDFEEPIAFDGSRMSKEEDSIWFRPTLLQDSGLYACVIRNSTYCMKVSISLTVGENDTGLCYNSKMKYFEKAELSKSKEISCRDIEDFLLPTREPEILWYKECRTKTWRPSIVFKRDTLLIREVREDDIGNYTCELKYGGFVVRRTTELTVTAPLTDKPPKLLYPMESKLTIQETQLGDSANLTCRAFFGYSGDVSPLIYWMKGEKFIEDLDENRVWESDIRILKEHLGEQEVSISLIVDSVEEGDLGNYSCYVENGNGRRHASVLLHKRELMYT

T2: IL1R2/CD121b (Sino biological, 10111-H08H) (UniProt P27930 14-343)
T2 construct: Bought protein
T2 sequence (looked up): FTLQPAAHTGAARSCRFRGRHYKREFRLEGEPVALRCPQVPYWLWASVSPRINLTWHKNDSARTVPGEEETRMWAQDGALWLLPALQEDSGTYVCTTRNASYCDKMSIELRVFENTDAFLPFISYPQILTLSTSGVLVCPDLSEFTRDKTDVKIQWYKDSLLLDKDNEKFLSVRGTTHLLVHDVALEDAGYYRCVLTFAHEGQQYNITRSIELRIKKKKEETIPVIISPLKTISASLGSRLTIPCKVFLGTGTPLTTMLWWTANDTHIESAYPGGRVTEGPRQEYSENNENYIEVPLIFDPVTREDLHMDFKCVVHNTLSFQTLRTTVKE

T3: IL1R9/IL1RAPL2 (Sino biological, 10156-H08H) (UniProt Q9NP60 17-354)
T3 construct: Bought protein
T3 sequence (looked up): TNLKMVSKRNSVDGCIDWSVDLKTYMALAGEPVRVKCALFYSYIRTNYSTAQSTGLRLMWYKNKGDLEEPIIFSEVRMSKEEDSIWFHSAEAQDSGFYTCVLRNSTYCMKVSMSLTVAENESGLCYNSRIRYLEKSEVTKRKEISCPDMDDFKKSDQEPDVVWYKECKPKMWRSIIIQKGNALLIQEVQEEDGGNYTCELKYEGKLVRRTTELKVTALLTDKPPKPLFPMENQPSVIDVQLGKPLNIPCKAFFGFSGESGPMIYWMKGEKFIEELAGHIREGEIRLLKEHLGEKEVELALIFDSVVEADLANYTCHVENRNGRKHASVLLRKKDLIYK

T4: IL1R7/IL-18RAcP (Sino biological, 10176-H08H) (UniProt O95256 20-356)
T4 construct: Bought protein
T4 sequence (looked up): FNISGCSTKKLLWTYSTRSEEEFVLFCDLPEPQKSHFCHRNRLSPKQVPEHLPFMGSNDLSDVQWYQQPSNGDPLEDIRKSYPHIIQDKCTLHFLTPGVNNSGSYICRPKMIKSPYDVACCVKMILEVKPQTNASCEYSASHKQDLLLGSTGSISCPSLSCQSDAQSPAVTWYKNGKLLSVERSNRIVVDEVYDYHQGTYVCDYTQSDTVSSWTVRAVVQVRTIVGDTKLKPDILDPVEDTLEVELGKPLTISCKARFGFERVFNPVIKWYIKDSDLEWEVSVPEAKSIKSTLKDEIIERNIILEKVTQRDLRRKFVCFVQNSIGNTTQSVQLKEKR


What was measured:
Assay in all cases: ELISA, plate coated with 2 µg/mL receptor
[1] = target: T1, IL1R8/IL1RAPL1 (Sino biological, …)
Description: (§1) The anti-ST2 antibodies were diluted with PBS buffer to a concentration of 1.5 mg/mL. After being treated at 72° C. for 5 min, the samples were assayed by ELISA for their binding activity for an antigen The ELISA procedure is as follows: A 96-well plate was coated with 2 µg/mL hST2-ECD-mFc as the antigen at 100 µL/well and incubated at 4° C. overnight. After the antigen not adsorbed was well washed off, the non-specific binding sites were blocked with a blocking buffer (PBST containing 1% bovine serum albumin). After the plate was washed three times with a washing buffer (PBST, PBS containing 0.05% (v/v) Tween 20), the anti-ST2 antibodies (serially diluted 3-fold from an initial concentration of 1.5 µg/mL to 8 concentrations) were added at 100 µL/well, and the plate was incubated at 37° C. for 1 h. […] After the plate was incubated at room temperature for 5 min, a stop solution (2 N H₂SO₄) was added to stop the reactions. The signals were read at 450 nm using a plate reader (PE, Envision). The data were analyzed using GraphPad Prism5, and the EC₅₀ values were calculated.
(§2) ST2 belongs to the IL1R receptor family. The cross-reactivity of the anti-ST2 antibodies with the IL1R family receptors was determined by ELISA. The IL1R family receptors include IL1R⅟CD121a (Sino biological, 10126-H08H), IL1R2/CD121b (Sino biological, 10111-H08H), IL1R3/IL1RAP (Sino biological, 10121-H08H), IL1R7/IL-18RAcP (Sino biological, 10176-H08H), IL1R8/IL1RAPL1 (Sino biological, 10177-H08H), and IL1R9/IL1RAPL2 (Sino biological, 10156-H08H). ELISA assays were performed using the proteins described above as antigens (2 µg/mL). See Example 13 for the specific ELISA procedure. No binding means that the antibody remains unbound to the antigen when at the highest concentration.

[2] = target: T2, IL1R2/CD121b (Sino biological, …)
Description: as §1, §2

[3] = target: T3, IL1R9/IL1RAPL2 (Sino biological, …)
Description: as §1, §2

[4] = target: T4, IL1R7/IL-18RAcP (Sino biological, …)
Description: as §1, §2

binding result [1]	binding result [2]	binding result [3]	binding result [4]	Binder
no binding	no binding	no binding	no binding	Chimeric 31C8 (antibody, human IgG2, kappa, V domains shown, also called xi31C8) VH: QVQLQQSGPELVRPGASVTLSCKASGYIFIDSEMHWVKQTPVHGLEWIGAIDPETGDTVYNQKFKGKATLTADKSSSTASMELSSLTSEDSAVYYCTGSTTDYYFAYWGQGTTLTVSS VL: DIVMTQAAFSNPVTLGTSASISCRSSKSLLHSNGIIYLYWYLQKPGQSPQLLIYQMSNLASGVPDRFSSSGSGTDFTLRISRVEAEDVGVYYCAQNLELPFTFGSGTKLEIKR
no binding	no binding	no binding	no binding	Humanized 31C8-1.1 (antibody, human IgG2, kappa, V domains shown, also called hz31C8-1.1; hz31C81-1.1) VH: EVQLVQSGAEVKKPGATVKISCKASGYIFIDSEMHWVQQAPGKGLEWMGAIDPETGDTVYAEKFQGRVTITADKSSSTAYMELSSLRSEDTAVYYCTGSTTDYYFAYWGQGTLVTVSS VL: DIQMTQSPSSLSASVGDRVTITCRSSKSLLHSNGIIYLYWYQQKPGKAPKLLIYQLSNLASGVPSRFSSSGSGTDFTLTISSLQPEDFATYYCAQNLELPFTFGQGTKVEIKR
no binding	no binding	no binding	no binding	Humanized 31C8-1.2 (antibody, human IgG2, kappa, V domains shown, also called hz31C8-1.2; hz31C81-1.2) VH: QVQLVQSGAKVKKPGATVKISCKASGYIFIDSEMHWVQQAPGKGLEWMGAIDPETGDTVYAKKFKGRVTITADKSSSTAYMELSSLRSEDTAVYYCTGSTTDYYFAYWGQGTLVTVSS VL: DIQMTQSPSSLSASVGDRVTITCRSSKSLLHSNGIIYLYWYQQKPGKAPKLLIYQLSNLASGVPSRFSSSGSGTDFTLTISSLQPEDFATYYCAQNLELPFTFGQGTKVEIKR
no binding	–	no binding	–	GSK3772847 (antibody STLM208 in CN104411333, prepared in-house) (antibody, human IgG2, kappa, V domains shown, Control anti-ST2 antibody) VH: EVQLLESGGGLVQPGGSLRLSCAASGFTFSIYDMIWVRQAPGKGLEWVSSIRGEGGGTYYADSVKGRFTISRDNSKNTLYLQMNSLRAEDTAVYYCARDPWSTEGSFFVLDYWGQGTLVTVSS VL: EIVLTQSPATLSLSPGERATLSCRASQSVDDDLAWYQQKPGQAPRLLIYDASNRATGIPARFSGSGSGTDFTLTISSLEPEDFAVYYCQQYITAPLTFGQGTKVEIKR
no binding	no binding	no binding	no binding	RG6149 (antibody Ab2 in CN104334582, prepared in-house) (antibody, human IgG2, kappa, V domains shown, Control anti-ST2 antibody) VH: EVQLVQSGAEVKKPGESLKISCKGSGYSFTNYWIGWVRQMPGKGLEWMGIIYPGNSDTRFSPSFQGQVTISADKSITTAYLQWSSLKASDTAMYYCARHGTSSDYYGLDVWGQGTTVTVSS VL: not shown
